Measured values as given in patent US7122652B1, “Polymorphisms in the human hPXR gene and their use diagnostic and therapeutic applications” (priority 1999, dated 2006).

Test system: hPXR-dependent promoter-reporter gene plasmid pGL3(DR3)3TK(−105)
Assay: hPXR-dependent promoter-reporter gene (luciferase) assay in co-transfected LS174T cells
Type: cell-based, human
Settings: 42 hours; for hPXR-mediated transcriptional activation of the reporter gene upon treatment with rifampicin, relative to wild type hPXR: 10 μM rifampicin, FIG. 6A; for basal activity in the absence of added hPXR activators, relative to wild type hPXR: 0.1% DMSO only, FIG. 6B
Procedure: FIG. 6: LS174T cells were co-transfected with the promoter artificial hPXR dependent reporter gene pGL3(DR3)3Tk(−105), pCMVβ and expression plasmids for hPXR variants, as indicated. Cells were treated for 42 hours with 10 μM rifampicin or 0.1% DMSO, then harvested and analyzed for luciferase and β-galactosidase activities. Data are shown as mean value ±SD. The activity of each hPXR variant in the presence of DMSO only was taken as 1 (A, B) or 100% (C). A) The effect of hPXR variants following 10 μM rifampicin. B) The effect of hPXR variants in the absence of exogenous inducers.
The functional consequences of the protein variants were investigated in LS174T cells. LS174T cells were first co-transfected with wild-type or variant hPXR expression plasmids together with the hPXR-dependent promoter-reporter gene plasmid pGL3(DR3)3TK(−105). […] The cells were treated with the xenobiotic rifampicin, a known activator of human hPXR (Blumberg, Genes Dev (1998), 3195–3205; Lehmann, J Clin Invest (1998), 1016–1023). […] In contrast, hPXR-mediated transcriptional activation was impaired in V140M, D163G and hPXR-2 variants. […] Changes in basal activity of variants are independent from activator-dependent activity.

Row | Molecule | hPXR-mediated transcriptional activation of the reporter gene upon treatment with rifampicin, relative to wild type hPXR | basal activity in the absence of added hPXR activators, relative to wild type hPXR
1 | E18K: hPXR protein variant, amino acid substitution of E to K at position 18 (c. 52G > A, exon 2) (protein, UniProt O75469 1-434, looked up, variant E18K) Nuclear receptor subfamily 1 …: MEVRPKESWNHADFVHCKDTESVPGKPSVNADEEVGGPQICRVCGDKATGYHFNVMTCEGCKGFFRRAMKRNARLRCPFRKGACEITRKTRRQCQACRLRKCLESGMKKEMIMSDEAVEERRALIKRKKSERTGTQPLGVQGLTEEQRMMIRELMDAQMKTFDTTFSHFKNFRLPGVLSSGCELPESLQAPSREEAAKWSQVRKDLCSLKVSLQLRGEDGSVWNYKPPADSGGKEIFSLLPHMADMSTYMFKGIISFAKVISYFRDLPIEDQISLLKGAAFELCQLRFNTVFNAETGTWECGRLSYCLEDTAGGFQQLLLEPMLKFHYMLKKLQLHEEEYVLMQAISLFSPDRPGVLQHRVVDQLQEQFAITLKSYIECNRPQPAHRFLFLKIMAMLTELRSINAQHTQRLLRIQDIHPFATPLMQELFGITGS | as efficiently as wild type hPXR | lower basal activity than wild type hPXR
2 | P27S: hPXR protein variant, amino acid substitution of P to S at position 27 (c. 79C > T, exon 2) (protein, UniProt O75469 1-434, looked up, variant P27S) Nuclear receptor subfamily 1 …: MEVRPKESWNHADFVHCEDTESVPGKSSVNADEEVGGPQICRVCGDKATGYHFNVMTCEGCKGFFRRAMKRNARLRCPFRKGACEITRKTRRQCQACRLRKCLESGMKKEMIMSDEAVEERRALIKRKKSERTGTQPLGVQGLTEEQRMMIRELMDAQMKTFDTTFSHFKNFRLPGVLSSGCELPESLQAPSREEAAKWSQVRKDLCSLKVSLQLRGEDGSVWNYKPPADSGGKEIFSLLPHMADMSTYMFKGIISFAKVISYFRDLPIEDQISLLKGAAFELCQLRFNTVFNAETGTWECGRLSYCLEDTAGGFQQLLLEPMLKFHYMLKKLQLHEEEYVLMQAISLFSPDRPGVLQHRVVDQLQEQFAITLKSYIECNRPQPAHRFLFLKIMAMLTELRSINAQHTQRLLRIQDIHPFATPLMQELFGITGS | as efficiently as wild type hPXR | lower basal activity than wild type hPXR
3 | V140M: hPXR protein variant, amino acid substitution of V to M at position 140 (c. 418G > A, exon 4) (protein, UniProt O75469 1-434, looked up, variant V140M) Nuclear receptor subfamily 1 …: MEVRPKESWNHADFVHCEDTESVPGKPSVNADEEVGGPQICRVCGDKATGYHFNVMTCEGCKGFFRRAMKRNARLRCPFRKGACEITRKTRRQCQACRLRKCLESGMKKEMIMSDEAVEERRALIKRKKSERTGTQPLGMQGLTEEQRMMIRELMDAQMKTFDTTFSHFKNFRLPGVLSSGCELPESLQAPSREEAAKWSQVRKDLCSLKVSLQLRGEDGSVWNYKPPADSGGKEIFSLLPHMADMSTYMFKGIISFAKVISYFRDLPIEDQISLLKGAAFELCQLRFNTVFNAETGTWECGRLSYCLEDTAGGFQQLLLEPMLKFHYMLKKLQLHEEEYVLMQAISLFSPDRPGVLQHRVVDQLQEQFAITLKSYIECNRPQPAHRFLFLKIMAMLTELRSINAQHTQRLLRIQDIHPFATPLMQELFGITGS | 50 % of wild type activity | 130 % of wild type
4 | G36R: hPXR protein variant, amino acid substitution of G to R at position 36 (c. 106G > A, exon 2) (protein, UniProt O75469 1-434, looked up, variant G36R) Nuclear receptor subfamily 1 …: MEVRPKESWNHADFVHCEDTESVPGKPSVNADEEVRGPQICRVCGDKATGYHFNVMTCEGCKGFFRRAMKRNARLRCPFRKGACEITRKTRRQCQACRLRKCLESGMKKEMIMSDEAVEERRALIKRKKSERTGTQPLGVQGLTEEQRMMIRELMDAQMKTFDTTFSHFKNFRLPGVLSSGCELPESLQAPSREEAAKWSQVRKDLCSLKVSLQLRGEDGSVWNYKPPADSGGKEIFSLLPHMADMSTYMFKGIISFAKVISYFRDLPIEDQISLLKGAAFELCQLRFNTVFNAETGTWECGRLSYCLEDTAGGFQQLLLEPMLKFHYMLKKLQLHEEEYVLMQAISLFSPDRPGVLQHRVVDQLQEQFAITLKSYIECNRPQPAHRFLFLKIMAMLTELRSINAQHTQRLLRIQDIHPFATPLMQELFGITGS | as efficiently as wild type hPXR | lower basal activity than wild type hPXR
5 | D163G: hPXR protein variant, amino acid substitution of D to G at position 163 (c. 488A > G, exon 4) (protein, UniProt O75469 1-434, looked up, variant D163G) Nuclear receptor subfamily 1 …: MEVRPKESWNHADFVHCEDTESVPGKPSVNADEEVGGPQICRVCGDKATGYHFNVMTCEGCKGFFRRAMKRNARLRCPFRKGACEITRKTRRQCQACRLRKCLESGMKKEMIMSDEAVEERRALIKRKKSERTGTQPLGVQGLTEEQRMMIRELMDAQMKTFGTTFSHFKNFRLPGVLSSGCELPESLQAPSREEAAKWSQVRKDLCSLKVSLQLRGEDGSVWNYKPPADSGGKEIFSLLPHMADMSTYMFKGIISFAKVISYFRDLPIEDQISLLKGAAFELCQLRFNTVFNAETGTWECGRLSYCLEDTAGGFQQLLLEPMLKFHYMLKKLQLHEEEYVLMQAISLFSPDRPGVLQHRVVDQLQEQFAITLKSYIECNRPQPAHRFLFLKIMAMLTELRSINAQHTQRLLRIQDIHPFATPLMQELFGITGS | 50 % of wild type activity | approximately 10 % of wild type
6 | A370T: hPXR protein variant, amino acid substitution of A to T at position 370 (c. 1108G > A, exon 8) (protein, UniProt O75469 1-434, looked up, variant A370T) Nuclear receptor subfamily 1 …: MEVRPKESWNHADFVHCEDTESVPGKPSVNADEEVGGPQICRVCGDKATGYHFNVMTCEGCKGFFRRAMKRNARLRCPFRKGACEITRKTRRQCQACRLRKCLESGMKKEMIMSDEAVEERRALIKRKKSERTGTQPLGVQGLTEEQRMMIRELMDAQMKTFDTTFSHFKNFRLPGVLSSGCELPESLQAPSREEAAKWSQVRKDLCSLKVSLQLRGEDGSVWNYKPPADSGGKEIFSLLPHMADMSTYMFKGIISFAKVISYFRDLPIEDQISLLKGAAFELCQLRFNTVFNAETGTWECGRLSYCLEDTAGGFQQLLLEPMLKFHYMLKKLQLHEEEYVLMQAISLFSPDRPGVLQHRVVDQLQEQFTITLKSYIECNRPQPAHRFLFLKIMAMLTELRSINAQHTQRLLRIQDIHPFATPLMQELFGITGS | slightly impaired transcriptional activation | 207 % of wild type
